Reference: patent US20220235136A1, “METHODS AND COMPOSITIONS FOR TREATING A DISEASE OR DISORDER” (YALE UNIVERSITY, priority 2019, published 2022)

Molecular target: human IGF1R on transfected CHO cells (human), P08069
Assay: flow cytometry, IGFBP7-Ig on IGF1R transfected CHO cells (CHO-WT: 3.52)
Conditions: remark: other sources report otherwise

Chain of human IGF1R on transfected CHO cells (human), P08069 (P08069 31-1367): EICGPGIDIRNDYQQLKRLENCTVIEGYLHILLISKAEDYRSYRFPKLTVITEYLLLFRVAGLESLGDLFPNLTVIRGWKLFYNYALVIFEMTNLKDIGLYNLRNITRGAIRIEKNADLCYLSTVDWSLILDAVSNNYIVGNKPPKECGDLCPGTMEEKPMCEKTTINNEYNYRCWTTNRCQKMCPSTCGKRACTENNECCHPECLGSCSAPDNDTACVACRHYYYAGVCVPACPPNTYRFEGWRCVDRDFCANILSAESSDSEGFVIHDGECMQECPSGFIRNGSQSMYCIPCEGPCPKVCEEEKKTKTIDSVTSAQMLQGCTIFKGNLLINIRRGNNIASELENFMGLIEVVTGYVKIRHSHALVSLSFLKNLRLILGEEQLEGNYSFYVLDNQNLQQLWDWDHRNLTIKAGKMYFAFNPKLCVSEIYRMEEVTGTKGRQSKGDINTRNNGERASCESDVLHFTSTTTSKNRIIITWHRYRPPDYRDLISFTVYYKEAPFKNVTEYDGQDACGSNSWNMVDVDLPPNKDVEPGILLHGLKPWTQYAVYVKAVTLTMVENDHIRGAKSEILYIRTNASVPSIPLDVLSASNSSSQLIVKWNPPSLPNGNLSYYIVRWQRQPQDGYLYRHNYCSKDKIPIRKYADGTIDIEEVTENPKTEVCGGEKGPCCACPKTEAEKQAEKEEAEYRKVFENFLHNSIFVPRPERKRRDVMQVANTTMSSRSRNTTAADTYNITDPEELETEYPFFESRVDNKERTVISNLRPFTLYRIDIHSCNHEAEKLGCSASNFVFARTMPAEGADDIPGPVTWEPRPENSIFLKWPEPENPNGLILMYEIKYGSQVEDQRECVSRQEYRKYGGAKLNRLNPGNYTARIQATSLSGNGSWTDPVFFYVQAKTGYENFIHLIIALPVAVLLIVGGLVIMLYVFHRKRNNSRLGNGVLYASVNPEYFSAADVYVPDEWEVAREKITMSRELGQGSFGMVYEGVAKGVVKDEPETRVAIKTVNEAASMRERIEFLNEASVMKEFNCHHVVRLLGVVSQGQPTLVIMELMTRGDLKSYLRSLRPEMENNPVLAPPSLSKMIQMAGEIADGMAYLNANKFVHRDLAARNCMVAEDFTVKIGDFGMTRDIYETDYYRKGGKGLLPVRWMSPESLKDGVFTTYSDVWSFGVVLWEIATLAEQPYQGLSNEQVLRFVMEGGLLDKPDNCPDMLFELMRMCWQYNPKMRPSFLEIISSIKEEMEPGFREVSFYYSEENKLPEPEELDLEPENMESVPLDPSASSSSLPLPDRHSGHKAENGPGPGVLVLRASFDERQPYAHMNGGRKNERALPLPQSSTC

B1: Human IGFBP7 (Fc-tag), Sino Biological, Q16270 27-282 (Fc fusion, not shown: a dimerising Fc or GST)
chain: SSSDTCGPCEPASCPPLPPLGCLLGETRDACGCCPMCARGEGEPCGGGGAGRGYCAPGMECVKSRKRRKGKAGAAAGGPGVSGVCVCKSRYPVCGSDGTTYPSGCQLRAASQRAESRGEKAITQVSKGTCEQGPSIVTPPKDIWNVTGAQVYLSCEVIGIPTPVLIWNKVKRGHYGVQRTELLPGDRDNLAIQTRGGPEKHEVTGWVLVSPLSKEDAGEYECHASNSQGQASASAKITVVDALHEIPVKKGEGAEL
B1 showed a number printed above the gate of the dot plot (share of cells in the gate; unit not given) of 2.04.
